{"source": "paper PMC11995724", "binders": {"B1": {"name": "tRNATrp_34-base (structured_RNA)", "RNA": "GUUCAAUUGGUAGAGCACCGGUCUCCAAAACCGG"}}, "biological_target": "MiaA C273A (Shigella flexneri, UniProt P59197 1-316, C273A)", "assay": "EMSA (2% agarose); 10 mM Mg2+; 100 uM 10-F05; binding only slightly decreased, largely unaffected", "conditions": "protein: recombinant; tags: N-terminal His-tag (pET28a); label: none (GelRed stain); predicted two hairpin loops", "data": [{"binder": "B1", "values": [{"measurement": "binding result", "result": "binds"}]}]}
